The values that follow come from US20250002610A1 (Genmab, published 2025).

Assay [1] has as its target T1, human DR4 (Death Receptor 4), cell surface expressed on human tumor cell lines (human, UniProt O00220 24-468).
T1 construct: also called TNFRSF10A; TRAIL-R1
T1 sequence: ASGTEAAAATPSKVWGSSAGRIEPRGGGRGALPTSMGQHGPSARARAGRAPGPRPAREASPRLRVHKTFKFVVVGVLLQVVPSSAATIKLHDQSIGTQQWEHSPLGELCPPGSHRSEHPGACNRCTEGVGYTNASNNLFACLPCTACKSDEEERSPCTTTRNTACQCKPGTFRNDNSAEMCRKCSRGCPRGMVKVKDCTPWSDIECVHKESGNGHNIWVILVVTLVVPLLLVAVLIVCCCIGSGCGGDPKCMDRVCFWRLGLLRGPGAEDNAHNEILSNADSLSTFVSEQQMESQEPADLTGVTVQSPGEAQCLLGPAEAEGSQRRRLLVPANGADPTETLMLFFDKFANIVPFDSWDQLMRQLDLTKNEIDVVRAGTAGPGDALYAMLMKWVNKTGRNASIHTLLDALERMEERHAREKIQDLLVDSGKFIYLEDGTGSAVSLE
Briefly: flow cytometry, MDA-MB-231 cells, N = 1. For orientation: A flow cytometer gives signals particle by particle.

The target in assay [2] is T1, human DR4 (Death Receptor 4), cell …. Briefly: flow cytometry, MDA-MB-231 cells, N = 2.
The target is the same in assay [3]. Briefly: flow cytometry, MDA-MB-231 cells, average ± SEM.

B1: BisG1-b12-FEAL/DR4-chCTB007-FEAR (bispecific antibody, human IgG1, kappa)
heavy 1: QVQLVQSGAEVKKPGASVKVSCQASGYRFSNFVIHWVRQAPGQRFEWMGWINPYNGNKEFSAKFQDRVTFTADTSANTAYMELRSLRSADTAVYYCARVGPYSWDDSPQDNYYMDVWGKGTTVIVSSASTKGPSVFPLAPSSKSTSGGTAALGCLVKDYFPEPVTVSWNSGALTSGVHTFPAVLQSSGLYSLSSVVTVPSSSLGTQTYICNVNHKPSNTKVDKRVEPKSCDKTHTCPPCPAPEFEGGPSVFLFPPKPKDTLMISRTPEVTCVVVAVSHEDPEVKFNWYVDGVEVHNAKTKPREEQYNSTYRVVSVLTVLHQDWLNGKEYKCKVSNKALPAPIEKTISKAKGQPREPQVYTLPPSREEMTKNQVSLTCLVKGFYPSDIAVEWESNGQPENNYKTTPPVLDSDGSFLLYSKLTVDKSRWQQGNVFSCSVMHEALHNHYTQKSLSLSPG
light 1: EIVLTQSPGTLSLSPGERATFSCRSSHSIRSRRVAWYQHKPGQAPRLVIHGVSNRASGISDRFSGSGSGTDFTLTITRVEPEDFALYYCQVYGASSYTFGQGTKLERKRTVAAPSVFIFPPSDEQLKSGTASVVCLLNNFYPREAKVQWKVDNALQSGNSQESVTEQDSKDSTYSLSSTLTLSKADYEKHKVYACEVTHQGLSSPVTKSFNRGEC
heavy 2: EVQLQQSGAELVKPGASVKLSCTASGFNIKDTYMHWVKQRPEQGLEWIGRIDPANGNTKYDPKFQGKATITADTSSNTAYLQLSSLTSEDTAVYYCAYYYVSNAWFTYWGQGTLVTVSAASTKGPSVFPLAPSSKSTSGGTAALGCLVKDYFPEPVTVSWNSGALTSGVHTFPAVLQSSGLYSLSSVVTVPSSSLGTQTYICNVNHKPSNTKVDKRVEPKSCDKTHTCPPCPAPEFEGGPSVFLFPPKPKDTLMISRTPEVTCVVVAVSHEDPEVKFNWYVDGVEVHNAKTKPREEQYNSTYRVVSVLTVLHQDWLNGKEYKCKVSNKALPAPIEKTISKAKGQPREPQVYTLPPSREEMTKNQVSLTCLVKGFYPSDIAVEWESNGQPENNYKTTPPVLDSDGSFFLYSRLTVDKSRWQQGNVFSCSVMHEALHNHYTQKSLSLSPG
light 2: DIQMTQSPASLSVSVGETVTITCRASENIYSNLEWYQQKQGKSPQLLVYAATNLADGVPSRFSGSGSGTQYSLKINSLQSEDFGSYYCQHFWGTWTFGGGTKLEIKRTVAAPSVFIFPPSDEQLKSGTASVVCLLNNFYPREAKVQWKVDNALQSGNSQESVTEQDSKDSTYSLSSTLTLSKADYEKHKVYACEVTHQGLSSPVTKSFNRGEC
notes: Fab-arm exchange of IgG1-b12-FEAL and IgG1-DR4-chCTB007-FEAR
For the molecule B1, the EC50 (commonly the concentration at which the effect is half-maximal) in assay [1] amounted to 1.61 µg/mL; in assay [2], 2.68 µg/mL; in assay [3] it was 2.14 µg/mL. Moreover, the “Max MFI (at 90 µg/mL)” value in assay [1] amounted to 2950 MFI; in assay [2], 2160 MFI; in assay [3], 2550 MFI.

B2: IgG1-DR4-T1014A04-FEAR (antibody, V domains shown)
VH: EVQLVQSGADVKRPGASVKVSCKISGDSFNAYFIHWVRQAPGQGLEWMGWFNPDSGTADSAQKFHGRVTMTRDTSSSTAFLELSRLRSDDTAVYYCVRQHRGNTFAPWGRGTMVTVSS
VL: QSVLTQPPSASGSPGQSVTISCTGTTSDVGGYNYVSWYQQHPGKAPKLMIYGVNQRPSGVPDRFSGSKSGNTASLTVSGLQAEDEADYYCSSYAGSNNWVFGGGTKLTVLG
notes: Prior art DR4 clone (US 7,361,341 B2)
As to B2, the EC50 in assay [1] was 0.45 µg/mL; in assay [2] it was 2.04 µg/mL; in assay [3], 1.25 µg/mL. Further, the “Max MFI (at 90 µg/mL)” value in assay [1] came to 953 MFI; in assay [2], 1610 MFI; in assay [3] it was 1280 MFI.
